Measurements reported in patent publication US20240270846A1 (published 2024).

B1: CE115HA000 H chain altered form H35D (antibody, human IgG1, kappa, L234A L235A, N297A, name in Kabat numbering)
heavy: QVQLVESGGGVVQPGRSLRLSCAASGFTFSNAWMDWVRQAPGKGLEWVAQIKAKSNNYATYYAESVKGRFTISRDDSKNSLYLQMNSLKTEDTAVYYCRYVHYGAYYGVDAWGQGTTVTVSSASTKGPSVFPLAPSSKSTSGGTAALGCLVKDYFPEPVTVSWNSGALTSGVHTFPAVLQSSGLYSLSSVVTVPSSSLGTQTYICNVNHKPSNTKVDKKVEPKSCDKTHTCPPCPAPEAAGGPSVFLFPPKPKDTLMISRTPEVTCVVVDVSHEDPEVKFNWYVDGVEVHNAKTKPREEQYASTYRVVSVLTVLHQDWLNGKEYKCKVSNKALPAPIEKTISKAKGQPREPQVYTLPPSRCELTKNQVSLSCAVKGFYPSDIAVEWESNGQPENNYKTTPPVLDSDGSFFLVSKLTVDKSRWQQGNVFSCSVMHEALHNHYTQKSLSLSPDYKDDDDK
chain: EPKSSDKTHTCPPCPAPELLGGPSVFLFPPKPKDTLMISRTPEVTCVVVDVSHEDPEVKFNWYVDGVEVHNAKTKPREEQYNSTYRVVSVLTVLHQDWLNGKEYKCKVSNKALPAPIEKTISKAKGQPREPQVCTLPPSRDELTKNQVSLWCLVKGFYPSDIAVEWESNGQPENNYKTTPPVLDSDGSFFLYSKLTVDKSRWQQGNVFSCSVMHEALHNRYTQKSLSLSP
light: DIVMTQSPLSLPVTPGEPASISCRSSQSLVHSNRNTYLHWYQQKPGQAPRLLIYKVSNRFSGVPDRFSGSGSGTDFTLKISRVEAEDVGVYYCGQGTQVPYTFGQGTKLEIKRTVAAPSVFIFPPSDEQLKSGTASVVCLLNNFYPREAKVQWKVDNALQSGNSQESVTEQDSKDSTYSLSSTLTLSKADYEKHKVYACEVTHQGLSSPVTKSFNRGEC
notes: one-arm antibody
B2: CE115HA000 H chain altered form H35E (antibody, human IgG1, kappa, L234A L235A, N297A, name in Kabat numbering)
heavy: QVQLVESGGGVVQPGRSLRLSCAASGFTFSNAWMEWVRQAPGKGLEWVAQIKAKSNNYATYYAESVKGRFTISRDDSKNSLYLQMNSLKTEDTAVYYCRYVHYGAYYGVDAWGQGTTVTVSSASTKGPSVFPLAPSSKSTSGGTAALGCLVKDYFPEPVTVSWNSGALTSGVHTFPAVLQSSGLYSLSSVVTVPSSSLGTQTYICNVNHKPSNTKVDKKVEPKSCDKTHTCPPCPAPEAAGGPSVFLFPPKPKDTLMISRTPEVTCVVVDVSHEDPEVKFNWYVDGVEVHNAKTKPREEQYASTYRVVSVLTVLHQDWLNGKEYKCKVSNKALPAPIEKTISKAKGQPREPQVYTLPPSRCELTKNQVSLSCAVKGFYPSDIAVEWESNGQPENNYKTTPPVLDSDGSFFLVSKLTVDKSRWQQGNVFSCSVMHEALHNHYTQKSLSLSPDYKDDDDK
chain: EPKSSDKTHTCPPCPAPELLGGPSVFLFPPKPKDTLMISRTPEVTCVVVDVSHEDPEVKFNWYVDGVEVHNAKTKPREEQYNSTYRVVSVLTVLHQDWLNGKEYKCKVSNKALPAPIEKTISKAKGQPREPQVCTLPPSRDELTKNQVSLWCLVKGFYPSDIAVEWESNGQPENNYKTTPPVLDSDGSFFLYSKLTVDKSRWQQGNVFSCSVMHEALHNRYTQKSLSLSP
light: DIVMTQSPLSLPVTPGEPASISCRSSQSLVHSNRNTYLHWYQQKPGQAPRLLIYKVSNRFSGVPDRFSGSGSGTDFTLKISRVEAEDVGVYYCGQGTQVPYTFGQGTKLEIKRTVAAPSVFIFPPSDEQLKSGTASVVCLLNNFYPREAKVQWKVDNALQSGNSQESVTEQDSKDSTYSLSSTLTLSKADYEKHKVYACEVTHQGLSSPVTKSFNRGEC
notes: one-arm antibody
B3: CE115HA000 H chain altered form H35F (antibody, human IgG1, kappa, L234A L235A, N297A, name in Kabat numbering)
heavy: QVQLVESGGGVVQPGRSLRLSCAASGFTFSNAWMFWVRQAPGKGLEWVAQIKAKSNNYATYYAESVKGRFTISRDDSKNSLYLQMNSLKTEDTAVYYCRYVHYGAYYGVDAWGQGTTVTVSSASTKGPSVFPLAPSSKSTSGGTAALGCLVKDYFPEPVTVSWNSGALTSGVHTFPAVLQSSGLYSLSSVVTVPSSSLGTQTYICNVNHKPSNTKVDKKVEPKSCDKTHTCPPCPAPEAAGGPSVFLFPPKPKDTLMISRTPEVTCVVVDVSHEDPEVKFNWYVDGVEVHNAKTKPREEQYASTYRVVSVLTVLHQDWLNGKEYKCKVSNKALPAPIEKTISKAKGQPREPQVYTLPPSRCELTKNQVSLSCAVKGFYPSDIAVEWESNGQPENNYKTTPPVLDSDGSFFLVSKLTVDKSRWQQGNVFSCSVMHEALHNHYTQKSLSLSPDYKDDDDK
chain: EPKSSDKTHTCPPCPAPELLGGPSVFLFPPKPKDTLMISRTPEVTCVVVDVSHEDPEVKFNWYVDGVEVHNAKTKPREEQYNSTYRVVSVLTVLHQDWLNGKEYKCKVSNKALPAPIEKTISKAKGQPREPQVCTLPPSRDELTKNQVSLWCLVKGFYPSDIAVEWESNGQPENNYKTTPPVLDSDGSFFLYSKLTVDKSRWQQGNVFSCSVMHEALHNRYTQKSLSLSP
light: DIVMTQSPLSLPVTPGEPASISCRSSQSLVHSNRNTYLHWYQQKPGQAPRLLIYKVSNRFSGVPDRFSGSGSGTDFTLKISRVEAEDVGVYYCGQGTQVPYTFGQGTKLEIKRTVAAPSVFIFPPSDEQLKSGTASVVCLLNNFYPREAKVQWKVDNALQSGNSQESVTEQDSKDSTYSLSSTLTLSKADYEKHKVYACEVTHQGLSSPVTKSFNRGEC
notes: one-arm antibody
B4: CE115HA000 H chain altered form H35G (antibody, human IgG1, kappa, L234A L235A, N297A, name in Kabat numbering)
heavy: QVQLVESGGGVVQPGRSLRLSCAASGFTFSNAWMGWVRQAPGKGLEWVAQIKAKSNNYATYYAESVKGRFTISRDDSKNSLYLQMNSLKTEDTAVYYCRYVHYGAYYGVDAWGQGTTVTVSSASTKGPSVFPLAPSSKSTSGGTAALGCLVKDYFPEPVTVSWNSGALTSGVHTFPAVLQSSGLYSLSSVVTVPSSSLGTQTYICNVNHKPSNTKVDKKVEPKSCDKTHTCPPCPAPEAAGGPSVFLFPPKPKDTLMISRTPEVTCVVVDVSHEDPEVKFNWYVDGVEVHNAKTKPREEQYASTYRVVSVLTVLHQDWLNGKEYKCKVSNKALPAPIEKTISKAKGQPREPQVYTLPPSRCELTKNQVSLSCAVKGFYPSDIAVEWESNGQPENNYKTTPPVLDSDGSFFLVSKLTVDKSRWQQGNVFSCSVMHEALHNHYTQKSLSLSPDYKDDDDK
chain: EPKSSDKTHTCPPCPAPELLGGPSVFLFPPKPKDTLMISRTPEVTCVVVDVSHEDPEVKFNWYVDGVEVHNAKTKPREEQYNSTYRVVSVLTVLHQDWLNGKEYKCKVSNKALPAPIEKTISKAKGQPREPQVCTLPPSRDELTKNQVSLWCLVKGFYPSDIAVEWESNGQPENNYKTTPPVLDSDGSFFLYSKLTVDKSRWQQGNVFSCSVMHEALHNRYTQKSLSLSP
light: DIVMTQSPLSLPVTPGEPASISCRSSQSLVHSNRNTYLHWYQQKPGQAPRLLIYKVSNRFSGVPDRFSGSGSGTDFTLKISRVEAEDVGVYYCGQGTQVPYTFGQGTKLEIKRTVAAPSVFIFPPSDEQLKSGTASVVCLLNNFYPREAKVQWKVDNALQSGNSQESVTEQDSKDSTYSLSSTLTLSKADYEKHKVYACEVTHQGLSSPVTKSFNRGEC
notes: one-arm antibody

Biological target: T1, CD3 epsilon homodimer protein (UniProt P07766 23-126)
T1 construct: also called CD3 (CD3 epsilon)
Assay: SPR Biacore T200, CD3 epsilon homodimer on chip, antibody as analyte;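 further: homodimer amine-coupled to a CM4 sensor chip, run at 25 °C in HBS-EP+ buffer, with kinetic parameters derived in Biacore T200 Evaluation Software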

T1 sequence (P07766 23-126): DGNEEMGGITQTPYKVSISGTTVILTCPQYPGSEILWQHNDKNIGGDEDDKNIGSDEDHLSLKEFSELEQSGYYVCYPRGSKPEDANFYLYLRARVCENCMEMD

Compared with B1, B2 is higher in “KD ratio (KD of CE115HA000 / KD of altered form)” value: 69 for the first, 70.3 for the second.

First: B3
Second: B4
The “KD ratio (KD of CE115HA000 / KD of altered form)” value of the first is higher: 53.6 for the first, 45.8 for the second.
